Reference: the RNAGym collection of RNA variant scans (doi:10.1073/pnas.2313332121)
Variants at the floor of the assay were thinned out.

B1: TPR 5TU (parent)
chain: GGAUCUUCUCGAUCUAACAAAAAAGACAAAUCUGCCACAAAGCUUGAGAGCAUCUUCGGAUGCAGAGGCGGCAGCCUUCGGUGGCGCGAUAGCGCCAACGUUCUCAACUAUGACACGCAAAACGCGUGCUCCGUUGAAUGGAGUUUAUCAUG

Variants of: B1
Assay: polymerase ribozyme fitness, log enrichment relative to wild type (log ratio); higher = more active; in vitro selection for triplet polymerase activity
In short: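 A single round of triplicate in vitro selection, including frozen incubation at −7 °C, was applied to PCR-built, transcribed mutant libraries of each subunit of a heterodimeric triplet polymerase ribozyme. Illumina sequencing of input and output libraries retained genotypes with ≥10 input reads and ≥1 read per output. Fitness is the base-2 logarithm of genotype enrichment divided by wild-type enrichment, from inverse-variance-weighted replicate averages.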

Variant	polymerase ribozyme fitness (log ratio)
C51A G58C U111A	≤ -4.2
A40G G84A C85G A106G	≤ -4.2
C43U C54U G140U	≤ -4.2
C18U U45C A120C	-0.849
C8U A26G U56A C76G C105U A106C C123U	≤ -4.2
C14U A19G U31C A39C G50A A66U G68U C93G	≤ -4.2
A29U A40C G62U G70A G84A C96A U139C	≤ -4.2
U56G A60G	-0.515
A37U A49C A73U C75G A106C	≤ -4.2
A19G	-0.472
A19C A28C A52G U56A G83A A142C	≤ -4.2
C79A U144A A147C	≤ -4.2
A12G G84C	-1.21
A119C U139C A142C	-4.13
G59C G141U	-0.299
U9C G58A A98U	≤ -4.2
A16U A30U C87A	≤ -4.2
A23C A37C U53A A64C U90C C96G U101G	≤ -4.2
G11C G59A A60C	-3.14
U44A G70C G117A G136U	≤ -4.2
U53A C79G C108U G136A U144G	≤ -4.2

Variant	polymerase ribozyme fitness (log ratio)
A30C C38G A49C U61A A66C G67C C93G A110U G124C G143A	≤ -4.2
C14A A28G A122U U134G U144G	≤ -4.2
A60G C69U A122C U135C	-3.94
A29U A41G G48C A138G	≤ -4.2
A23C G81A A91U G143A	≤ -4.2
C18U C95U	-0.678
G88A C105U	-3.72
C75U C96U	-0.743
U56G A89C C96A C116G A119C	-3.23
U56A C87U U148A	-3.33
U9C U33G A39U U55A C57U A91C C95A G140U	≤ -4.2
A20U G133C	-3.79
G65C C149G	≤ -4.2
G62A G92A C116U	-2.52
A30U A39U G62A G70A A89C C129A A142C	≤ -4.2
C18A U56A C93A A137G	-4.08
A3U A30G A52U C79G G88U C95U A115G A120C G133U	-4.13
G50A A142U	-2.45
A40G C85G	-3.63
C10G A21U C87G A91U C95A	≤ -4.2
C38U U56A C63A G117C A121U	0.398

Variant	polymerase ribozyme fitness (log ratio)
A16G A52C C87A U102A C118G C132U	≤ -4.2
C27A C85A C149U	≤ -4.2
A37G C54U C131U	-1.58
C18U A26U U31A U53A G94U	≤ -4.2
U13C A121U A142C	-2.44
U53G U90A C93G A110C	≤ -4.2
U4A C10U A23C C57U G81A G92C A115C C118A	≤ -4.2
C18A A20U A24G A26G A29U C57A U77A G88C	≤ -4.2
A52C U56A C75U A89U U90G C95G C123G C125A	≤ -4.2
U7A C32G U33C C87A C96U U101C C116A U145G U146C	≤ -4.2
G11U A28C A49C C51A U53A C57U C95A G140A	≤ -4.2
A22U A28U A47C C72G G84U C149A	≤ -4.2
A21G G42A C93U A110C	≤ -4.2
A40C A47U A60U	-1.07
U82G A89C A98G A142C	-1.56
C35A C69A C99U U127C	≤ -4.2
A21C A24G A52G G67A C85A G141C	≤ -4.2
C69U A115U C123U	-1.62
A47C C96U C103A C114G C123U	≤ -4.2
A41U A60U G84A C95G C105U A110U	≤ -4.2
A30C G83C U101G A121U	≤ -4.2

Variant	polymerase ribozyme fitness (log ratio)
A16C A60U A66C C76U U78C C93A	≤ -4.2
A60U A98U	-0.598
U44A A107U	-0.956
C76U G128U	-3.27
C32G A47G C72A A73C C96A U127C	≤ -4.2
A21U A52G G92A G124C	-3.99
G86A U148A	-3.4
G48A C85U C114U A122C	-2.44
A22U U53C G92U	-0.0274
C27U C76G G88A C93G G100U	≤ -4.2
C76A C96A A122C C123A	-1.55
U55G G59U U127C	-2.75
U6G C14A C79A U145C	≤ -4.2
A40U G126C	-0.388
A60C U82A	-1.28
C36A C95U U104A C118G	≤ -4.2
C32G G81A	-4.14
A12U A16G A40C U55A G81A C118G C129A	≤ -4.2
U90C U145G	≤ -4.2
A3U U13G	0.0481
U56A G88C A122G C123G	≤ -4.2
